Experimental data reported in patent publication US9944718B2, “ADAM22 for use as a prognostic variable, and target for therapy, of a metastatic breast cancer disease” (Royal College of Surgeons in Ireland, priority 2011, dated 2018).
Peptide text beside a SMILES is read from it.

B1: LGI1: neuronal protein and known ADAM22 ligand LGI1 (SEQ ID NO: 1), GENBANK AAQ89244 (protein, listed as Homo sapiens)
chain: MESERSKRMGNACIPLKRIAYFLCLLSALLLTEGKKPAKPKCPAVCTCTKDNALCENARSIPRTVPPDVISLSFVRSGFTEISEGSFLFTPSLQLLLFTSNSFDVISDDAFIGLPHLEYLFIENNNIKSISRHTFRGLKSLIHLSLANNNLQTLPKDIFKGLDSLTNVDLRGNSFNCDCKLKWLVEWLGHTNATVEDIYCEGPPEYKKRKINSLSSKDFDCIITEFAKSQDLPYQSLSIDTFSYLNDEYVVIAQPFTGKCIFLEWDHVEKTFRNYDNITGTSTVVCKPIVIETQLYVIVAQLFGGSHIYKRDSFANKFIKIQDIEILKIRKPNDIETFKIENNWYFVVADSSKAGFTTIYKWNGNGFYSHQSLHAWYRDTDVEYLEIVRTPQTLRTPHLILSSSSQRPVIYQWNKATQLFTNQTDIPNMEDVYAVKHFSVKGDVYICLTRFIGDSKVMKWGGSSFQDIQRMPSRGSMVFQPLQINNYQYAILGSDYSFTQVYNWDAEKAKFVKFQELNVQAPRSFTHVSINKRNFLFASSFKGNTQIYKHVIVDLSA
modifications: (1)..(557) LGI1 protein

Assays:
[1] = Toxicity study of LGI1 peptide mimetic in vivo; conditions: preliminary in vivo studies; FIG. 1F
Procedure: LGI1 mimetic was delivered by daily intraperitoneal injection to C57/bl6 mice at high (100 ug/kg/day), medium (10 ug/kg/day) and low dose (1 ug/kg/day) for 30 days.

[2] = system: endocrine resistant LetR cells; assay: Xenograft model of endocrine resistance; type: in vivo; conditions: FIG. 1G
Source text: As ADAM22 expression has previously only been described in the central nervous system, a therapeutic directed against systemic ADAM22 has the potential to be highly specific for the breast and have low toxicity. The neuronal protein, LGI1 serves as a specific extracellular ligand for ADAM22^4. […] The Applicant has shown that treatment with recombinant LGI1 reduced cellular migration and restored differentiation in endocrine resistant cells in a similar manner to that observed with knockdown of ADAM22 (FIGS. 1C and D). A 22 amino acid peptide mimetic of LGI1 with a simple hairpin structure against the active binding domain of ADAM22 has been developed. […] In vivo studies have been undertaken to assess the efficacy of the LGI1 mimetic in reducing breast cancer burden in endocrine resistant breast cancer. […] This has significant advantage over previous methods described of detecting metastatic disease^9.

[3] = system: LetR cells; assay: Cellular differentiation in 3D culture, LetR cells; type: cell-based; conditions: LetR cells treated with LGI1; n=3; FIG. 1D
[4] = system: endocrine resistant LY2 cells; assay: Motility assay, LY2 cells; type: cell-based; conditions: 5 nM, FIG. 1C/1E
Source text: (§1) • For cell culture use Minimum Essential Medium-Eagle (EMEM; BioWhittaker, Product No. 12-611Q) containing the following supplements (=EMEM Complete Medium): 10% fetal calf serum (BioWhittaker, Product No. 14-503F), 1X penicillin/streptomycin solution (BioWhittaker, Product No. 17-602E), 1% L-glutamine (BioWhittaker, Product No. 17-605E), 1% non-essential amino acids (BioWhittaker, Product No. 13-114E) and 1% sodium pyruvate (BioWhittaker, Product No. 13-115E). • Split cells when they reach 60-80% confluency (every 2-3 days), diluting 1:5 to 1:10. • For cell motility, harvest cells with trypsin-versene mixture (BioWhittaker, Product No. 17-161F) and dilute into EMEM Complete Medium (warmed to 37° C.). For cells cultured in a T-75 flask, wash cells with 3 ml of trypsin. Add another 3 ml of trypsin and aspirate 2 ml. Allow cells to detach by incubating flask at 37° C. for 5 minutes and then add 9 ml of EMEM Complete Medium and centrifuge cells at 400×g for 5 minutes at room temperature. • Wash 3× with Serum-Free Culture Medium (warmed to 37° C.) (see Procedure section). • Adjust cell density to 10^4 cells/ml in EMEM serum-free medium and add 50 μl of the cell suspension to each well of a 96-well microplate (=500 cells/well). Cell motility is stimulated with 50 μl of 10% fetal bovine serum (FBS) diluted in EMEM serum-free medium. […]

[5] = system: endocrine resistant LetR cells; assay: Motility assay, LetR cells; type: cell-based; conditions: 5 nM, FIG. 1C/1E
Source text: as §1

[6] = system: MCF7 cells; assay: Motility assay, MCF7 cells; type: cell-based; conditions: 5 nM, FIG. 1C
Source text: as §1

[7] = LetR cells in vivo, daily injection

Molecule	tolerability / toxicity [1]	cell proliferation in vivo [2, 7]	metastasis in vivo [2, 7]	tumour burden ([2]; xenograft model of endocrine resistance)	cellular differentiation [3]	cellular migration [4]	cellular migration [5]	cellular migration [6]
CC[C@H](C)[C@H](NC(=O)[C@H](Cc1ccccc1)NC(=O)[C@H](CCCNC(=N)N)NC(=O)[C@@H](NC(=O)[C@H](CC(C)C)NC(=O)[C@H](CS)NC(=O)[C@@H](NC(=O)[C@H](Cc1ccc(O)cc1)NC(=O)[C@@H](NC(=O)[C@H](CC(=O)O)NC(=O)CNC(=O)[C@@H](N)CCCCN)C(C)C)[C@@H](C)CC)[C@@H](C)O)C(=O)NCC(=O)N[C@@H](CC(=O)O)C(=O)N[C@@H](CO)C(=O)N[C@@H](CCCCN)C(=O)N[C@H](C(=O)N[C@@H](CCSC)C(=O)N[C@@H](CCCCN)C(=O)N[C@@H](Cc1c[nH]c2ccccc12)C(=O)NCC(=O)NCC(=O)O)C(C)C [LGI1 mimetic] (H-KGDVYICLTRFIGDSKVMKWGG-OH)	well tolerated with no toxicity observed	–	–	–	–	–	–	–
B1	–	inhibits	inhibits	significantly reduced tumour burden	restored cellular differentiation	significantly reduced cellular migration	significantly reduced cellular migration	no discernable effect
